Entries after “also recorded” stand apart in the source; their conditions may differ.

In the test the test system is injured optic nerve axons. Kind of test: optic nerve crush injury, axon regeneration assessed by CTB anterograde tracing. The class given is in vivo, mice. The conditions noted are these: intravitreal 1 μl CNTF (1 μg/μl) immediately before and 3 days after injury. The method, then:
We applied optic nerve crush injury to assess axon growth ability in adult CNS in different conditional floxed mice (Park et al., 2008 Science 322, 963-966). Intravitreal application of recombinant adeno-associated viruses expressing Cre (AAVCre) results in Cre-dependent reporter expression in more than 90% of RGCs. Regeneration was assessed in the injured optic nerve axons by using cholera toxin beta subunit (CTB), an anterograde tracer, which was injected into the vitreous of the retina following optic nerve injury two days prior to histological analyses. Neuronal survival was assessed using whole-mount staining of the retinal tissue by immunostaining with an anti-β-III tubulin antibody, a commonly used marker of RGCs.
We intravitreously injected 1 μl CNTF (1 μg/μl) immediately before injury and 3 days after injury (PBS injection was used as control).

B1: ciliary neurotrophic factor (protein, UniProt P26441 1-200, looked up)
Ciliary neurotrophic factor: MAFTEHSPLTPHRRDLCSRSIWLARKIRSDLTALTESYVKHQGLNKNINLDSADGMPVASTDQWSELTEAERLQENLQAYRTFHVLLARLLEDQQVHFTPTEGDFHQAIHTLLLQVAAFAYQIEELMILLEYKIPRNEADGMPINVGDGGLFEKKLWGLKVLQELSQWTVRSIHDLRFISSHQTGIPARGSHYIANNKKM
B1: for the setting “SOCS3 deleted mice”, the “numbers and lengths of regenerating axons” value is reported as “dramatic increase; also recorded: further enhances”. Also, the axon regeneration result (control mice (SOCS3f/f with AAV-GFP)) was “limited degree of axon regeneration”.

The values are drawn from patent US20110124706A1, “SOCS3 Inhibition Promotes CNS Neuron Regeneration” (priority 2009, published 2011).
